First the molecules themselves.
B1: Tumor protein p73, residues 487 to 549; numbered along this chain, O15350 (parent)
chain: YHADPSLVSFLTGLGCPNCIEYFTSQGLQSIYHLQNLTIEDLGALKIPEQYRMTIWRGLQDLK

± gives the uncertainty stated by the source.

The variants in this series derive from B1. In words: abundance fitness (aPCA) (normalised: wild type 0, dead -1); higher = more abundant; growth selection in yeast, the domain comes from the species named. As to conditions: Homo sapiens.
On to YHADPSLVSFLTGLGCPNCIEYFTSQGPQSIYHLQNLTIEDLGALKIPEQYRMTIWRGLQDLK [L28P], for which the abundance fitness is -0.286 ± 0.069.

Turning to YHADPSLVSFLTGLGCPNCIEYFTSQGIQSIYHLQNLTIEDLGALKIPEQYRMTIWRGLQDLK [L28I], the abundance fitness is -0.041 ± 0.065.

Take YHADPSLVSFLTGLGCPNCIEYFTSQGMQSIYHLQNLTIEDLGALKIPEQYRMTIWRGLQDLK [L28M]: the abundance fitness turned out to be 0.042 ± 0.051.

On to YHADPSLVSFLTGLGCPNCIEYFTSQGRQSIYHLQNLTIEDLGALKIPEQYRMTIWRGLQDLK [L28R], for which the abundance fitness was -0.05 ± 0.027.

Turning to YHADPSLVSFLTGLGCPNCIEYFTSQGDQSIYHLQNLTIEDLGALKIPEQYRMTIWRGLQDLK [L28D], the abundance fitness was -0.261 ± 0.081.

On to YHADPSLVSFLTGLGCPNCIEYFTSQGFQSIYHLQNLTIEDLGALKIPEQYRMTIWRGLQDLK [L28F], for which the abundance fitness was found to be 0.175 ± 0.077.

In the case of YHADPSLVSFLTGLGCPNCIEYFTSQGSQSIYHLQNLTIEDLGALKIPEQYRMTIWRGLQDLK [L28S], the abundance fitness is -0.079 ± 0.035.

For YHADPSLVSFLTGLGCPNCIEYFTSQGNQSIYHLQNLTIEDLGALKIPEQYRMTIWRGLQDLK [L28N], the abundance fitness was -0.241 ± 0.072.

YHADPSLVSFLTGLGCPNCIEYFTSQGWQSIYHLQNLTIEDLGALKIPEQYRMTIWRGLQDLK [L28W]: the abundance fitness was -0.16 ± 0.039.

YHADPSLVSFLTGLGCPNCIEYFTSQGTQSIYHLQNLTIEDLGALKIPEQYRMTIWRGLQDLK [L28T]: the abundance fitness was -0.186 ± 0.046.

As to YHADPSLVSFLTGLGCPNCIEYFTSQGVQSIYHLQNLTIEDLGALKIPEQYRMTIWRGLQDLK [L28V], the abundance fitness is -0.008 ± 0.028.

As to YHADPSLVSFLTGLGCPNCIEYFTSQGGQSIYHLQNLTIEDLGALKIPEQYRMTIWRGLQDLK [L28G], the abundance fitness is -0.289 ± 0.032.

Turning to YHADPSLVSFLTGLGCPNCIEYFTSQGEQSIYHLQNLTIEDLGALKIPEQYRMTIWRGLQDLK [L28E], the abundance fitness was -0.177 ± 0.061.

In the case of YHADPSLVSFLTGLGCPNCIEYFTSQGHQSIYHLQNLTIEDLGALKIPEQYRMTIWRGLQDLK [L28H], the abundance fitness is 0.083 ± 0.13.

Turning to YHADPSLVSFLTGLGCPNCIEYFTSQGYQSIYHLQNLTIEDLGALKIPEQYRMTIWRGLQDLK [L28Y], the abundance fitness is -0.058 ± 0.051.

In the case of YHADPSLVSFLTGLGCPNCIEYFTSQGKQSIYHLQNLTIEDLGALKIPEQYRMTIWRGLQDLK [L28K], the abundance fitness amounted to 0.005 ± 0.043.

With YHADPSLVSFLTGLGCPNCIEYFTSQGQQSIYHLQNLTIEDLGALKIPEQYRMTIWRGLQDLK [L28Q], the abundance fitness is -0.038 ± 0.042.

In the case of YHADPSLVSFLTGLGCPNCIEYFTSQGCQSIYHLQNLTIEDLGALKIPEQYRMTIWRGLQDLK [L28C], the abundance fitness is 0.021 ± 0.044.

Consider YHADPSLVSFLTGLGCPNCIEYFTSQGLQQIYHLQNLTIEDLGALKIPEQYRMTIWRGLQDLK [S30Q], for which the abundance fitness is 0.115 ± 0.041.

Consider YHADPSLVSFLTGLGCPNCIEYFTSQGLQVIYHLQNLTIEDLGALKIPEQYRMTIWRGLQDLK [S30V], for which the abundance fitness is -0.521 ± 0.05.

Consider YHADPSLVSFLTGLGCPNCIEYFTSQGLQCIYHLQNLTIEDLGALKIPEQYRMTIWRGLQDLK [S30C], for which the abundance fitness is -0.062 ± 0.04.

Consider YHADPSLVSFLTGLGCPNCIEYFTSQGLQFIYHLQNLTIEDLGALKIPEQYRMTIWRGLQDLK [S30F], for which the abundance fitness is -0.423 ± 0.079.

YHADPSLVSFLTGLGCPNCIEYFTSQGLQPIYHLQNLTIEDLGALKIPEQYRMTIWRGLQDLK [S30P]: the abundance fitness is -0.629 ± 0.094.

With YHADPSLVSFLTGLGCPNCIEYFTSQGLQGIYHLQNLTIEDLGALKIPEQYRMTIWRGLQDLK [S30G], the abundance fitness is -0.086 ± 0.03.

Consider YHADPSLVSFLTGLGCPNCIEYFTSQGLQNIYHLQNLTIEDLGALKIPEQYRMTIWRGLQDLK [S30N], for which the abundance fitness came out at 0.025 ± 0.055.

For the variant YHADPSLVSFLTGLGCPNCIEYFTSQGLQRIYHLQNLTIEDLGALKIPEQYRMTIWRGLQDLK [S30R], the abundance fitness is -0.043 ± 0.025.

Take YHADPSLVSFLTGLGCPNCIEYFTSQGLQIIYHLQNLTIEDLGALKIPEQYRMTIWRGLQDLK [S30I]: the abundance fitness is -1.01 ± 0.27.

On to YHADPSLVSFLTGLGCPNCIEYFTSQGLQYIYHLQNLTIEDLGALKIPEQYRMTIWRGLQDLK [S30Y], for which the abundance fitness was -0.016 ± 0.051.

For the variant YHADPSLVSFLTGLGCPNCIEYFTSQGLQKIYHLQNLTIEDLGALKIPEQYRMTIWRGLQDLK [S30K], the abundance fitness is -0.03 ± 0.083.

On to YHADPSLVSFLTGLGCPNCIEYFTSQGLQMIYHLQNLTIEDLGALKIPEQYRMTIWRGLQDLK [S30M], for which the abundance fitness was -0.094 ± 0.22.

Consider YHADPSLVSFLTGLGCPNCIEYFTSQGLQWIYHLQNLTIEDLGALKIPEQYRMTIWRGLQDLK [S30W], for which the abundance fitness is -0.817 ± 0.085.

Regarding YHADPSLVSFLTGLGCPNCIEYFTSQGLQTIYHLQNLTIEDLGALKIPEQYRMTIWRGLQDLK [S30T], the abundance fitness was 0.085 ± 0.073.

With YHADPSLVSFLTGLGCPNCIEYFTSQGLQHIYHLQNLTIEDLGALKIPEQYRMTIWRGLQDLK [S30H], the abundance fitness is -0.027 ± 0.065.

As for YHADPSLVSFLTGLGCPNCIEYFTSQGLNSIYHLQNLTIEDLGALKIPEQYRMTIWRGLQDLK [Q29N], the abundance fitness is -0.108 ± 0.21.

As for YHADPSLVSFLTGLGCPNCIEYFTSQGLTSIYHLQNLTIEDLGALKIPEQYRMTIWRGLQDLK [Q29T], the abundance fitness was determined as 0.066 ± 0.04.

Take YHADPSLVSFLTGLGCPNCIEYFTSQGLDSIYHLQNLTIEDLGALKIPEQYRMTIWRGLQDLK [Q29D]: the abundance fitness stood at 0.089 ± 0.089.

Consider YHADPSLVSFLTGLGCPNCIEYFTSQGLISIYHLQNLTIEDLGALKIPEQYRMTIWRGLQDLK [Q29I], for which the abundance fitness amounted to 0.142 ± 0.06.

As for YHADPSLVSFLTGLGCPNCIEYFTSQGLESIYHLQNLTIEDLGALKIPEQYRMTIWRGLQDLK [Q29E], the abundance fitness turned out to be 0.05 ± 0.038.

With YHADPSLVSFLTGLGCPNCIEYFTSQGLRSIYHLQNLTIEDLGALKIPEQYRMTIWRGLQDLK [Q29R], the abundance fitness was -0.063 ± 0.028.

For YHADPSLVSFLTGLGCPNCIEYFTSQGLKSIYHLQNLTIEDLGALKIPEQYRMTIWRGLQDLK [Q29K], the abundance fitness is 0.05 ± 0.035.

As for YHADPSLVSFLTGLGCPNCIEYFTSQGLWSIYHLQNLTIEDLGALKIPEQYRMTIWRGLQDLK [Q29W], the abundance fitness was -0.139 ± 0.035.

YHADPSLVSFLTGLGCPNCIEYFTSQGLFSIYHLQNLTIEDLGALKIPEQYRMTIWRGLQDLK [Q29F]: the abundance fitness is -0.005 ± 0.056.
